# Measurements from patent publication US20200207854A1 (SYNTIMMUNE, published 2020).
# Key:
# [1] = target: monomeric His-tagged human FcRn (JTA), produced in-house (human) (UniProt P55899); assay: SPR, IgG amine-coupled, monomeric His-hFcRn injected, 1:1 Langmuir, pH 6.0
# [2] = target: monomeric His-tagged human FcRn (JTA), produced in-house (human) (UniProt P55899); assay: SPR, IgG amine-coupled, monomeric His-hFcRn injected, pH 6.0; first of two values in the cell
# [3] = target: monomeric His-tagged human FcRn (JTA), produced in-house (human) (UniProt P55899); assay: SPR, IgG amine-coupled, monomeric His-hFcRn injected, pH 6.0; second value (steady-state affinity model by the footnote)
# [4] = target: T1, recombinant human FcRn (Sino Biological Inc. Cat. No. CT009-H08H) (human, UniProt P55899 24-297; P61769 21-119); assay: competition ELISA vs biotinylated human serum IgG, captured FcRn, pH 6.0
# T1 construct: Bought protein; also called immobilized FcRn; hFcRn (SINO)
# Experimental: The following day, 0.5 μg/ml recombinant human FcRn (Sino Biological Inc. cat. no. CT009-H08H) diluted in PBS pH 7.4 was added to the wells and incubated for one hour at 37° C. After washing the plates 3× with PBST pH 7.4, the plates were blocked with PBSM pH 7.4 for one hour at 37° C. From this point onwards, all wash and incubation steps were performed at assay pH 6.0.
# [5] = target: T1, recombinant human FcRn (Sino Biological …); assay: competition ELISA vs biotinylated parent murine antibody, captured FcRn, pH 6.0
# Experimental: (§1) The following day, 1 μg/ml recombinant human FcRn (Sino Biological Inc. cat. no. CT009-H08H) diluted in PBS pH 7.4 was added to the wells and incubated for 1 hour at 37° C. After washing the plates 3× with PBST pH 7.4, the plates were blocked with PBSM pH 7.4 for 1 hour at 37° C. From this point onwards, all wash and incubation steps were performed at the chosen assay pH (pH 6.0 or 7.4).
# (§2) Additional combinations of humanized affinity matured heavy chains and humanized affinity matured light chains were tested in the competition ELISA. Combinations of humanized affinity matured heavy chains and humanized non-affinity matured light chains also were tested.
# [6] = target: T1, recombinant human FcRn (Sino Biological …); assay: competition ELISA vs biotinylated parent murine antibody, captured FcRn, pH 7.4
# Experimental: as §1, §2
koff [1],kon [1],Kd [2],Kd [3],average relative IC50 [4],average relative IC50 [5],average relative IC50 [6],Molecule
0.0824 s⁻¹,108000 M⁻¹ s⁻¹,763 nM,1250 nM,,,,human IgG1 (antibody)
,,1010 nM,970 nM,,,,human IgG4 (antibody)
,,,,0.53 relative to parent murine antibody,0.87 relative to chimeric parent murine antibody,0.89 relative to chimeric parent murine antibody,"VH1_A8/Vκ1 IgG4 (antibody, V domains shown, Human IgG4, kappa) VH: QVQLVQSGAELKKPGASVKLSCKASGYTFTSYGISWVKQATGQGLEWIGEIYPRSGNTYYNEKFKGRATLTADKSTSTAYMELRSLKSEDSAVYFCARSTTVSPPAHWGTGTTVTVSS VL: DIQMTQSPSYLSASVGDRVTITCKASDHINNWLAWYQQKPGQAPRLLISGATSLETGVPSRFSGSGTGKDYTLTISSLQTEDFATYYCQQYWSTPYTFGGGTKVEIK"
